Measured values from PMC4914967, “An evolutionarily conserved SSNA1/DIP13 homologue is a component of both basal and apical complexes of Toxoplasma gondii” (Scientific Reports, 2016).

Target: the molecule itself
Assay: SDS-PAGE with Coomassie staining and anti-His immunoblot; purified His-tagged recombinant TgDIP13 resolved on a gel; bands at ~18 kDa (monomer) and ~36 kDa (dimer)

B1: His-tagged recombinant TgDIP13 (Toxoplasma gondii SSNA1/DIP13 homologue) (natural protein, UniProt A0A125YRV3 1-150, looked up)
chain: MTSTTNSNLHNYNHELVACIDDLRRKREEVHRQIIKEEEDRAKVQKEIALLQERLQKLNDSITRKIQARNEYDKTILETEAAYTKILESAQTLLHVLKRESVHLGRKTSGDRAELPGIGITGVGVDYSPNSVSELSHRRAEKGKPTAGAG
notes: TgDIP13, the SSNA1/DIP13 homologue of Toxoplasma gondii (ToxoDB entry TGME49_295450); the TgDIP13 gene was amplified from T. gondii cDNA with primers ML2448/ML2449 and cloned NdeI/XhoI into pET24a+; Apparent mass of the monomer ~18 kDa; also called T. gondii SSNA1/DIP13 homologue; not shown: His6, C-terminal, kept
B1 was tested, and the “stoichiometry N” value was 2.
